In patent US20230407298A1 (Johns Hopkins, published 2023):

B1: Lamin B1 (other, human, UniProt P20700 2-583, looked up)
chain: ATATPVPPRMGSRAGGPTTPLSPTRLSRLQEKEELRELNDRLAVYIDKVRSLETENSALQLQVTEREEVRGRELTGLKALYETELADARRALDDTARERAKLQIELGKCKAEHDQLLLNYAKKESDLNGAQIKLREYEAALNSKDAALATALGDKKSLEGDLEDLKDQIAQLEASLAAAKKQLADETLLKVDLENRCQSLTEDLEFRKSMYEEEINETRRKHETRLVEVDSGRQIEYEYKLAQALHEMREQHDAQVRLYKEELEQTYHAKLENARLSSEMNTSTVNSAREELMESRMRIESLSSQLSNLQKESRACLERIQELEDLLAKEKDNSRRMLTDKEREMAEIRDQMQQQLNDYEQLLDVKLALDMEISAYRKLLEGEEERLKLSPSPSSRVTVSRASSSRSVRTTRGKRKRVDVEESEASSSVSISHSASATGNVCIEEIDVDGKFIRLKNTSEQDQPMGGWEMIRKIGDTSVSYKYTSRYVLKAGQTVTIWAANAGVTASPPTDLIWKNQNSWGTGEDVKVILKNSQGEEVAQRSTVFKTTIPEEEEEEEEAAGVVVEEELFHQQGTPRASNRSC
notes: Absent from XPO1 immunoprecipitates by western blot
B2: LEMD2 (other, human, UniProt Q8NC56 2-503, looked up)
chain: AGLSDLELRRELQALGFQPGPITDTTRDVYRNKLRRLRGEARLRDEERLREEARPRGEERLREEARLREDAPLRARPAAASPRAEPWLSQPASGSAYATPGAYGDIRPSAASWVGSRGLAYPARPAQLRRRASVRGSSEEDEDARTPDRATQGPGLAARRWWAASPAPARLPSSLLGPDPRPGLRATRAGPAGAARARPEVGRRLERWLSRLLLWASLGLLLVFLGILWVKMGKPSAPQEAEDNMKLLPVDCERKTDEFCQAKQKAALLELLHELYNFLAIQAGNFECGNPENLKSKCIPVMEAQEYIANVTSSSSAKFEAALTWILSSNKDVGIWLKGEDQSELVTTVDKVVCLESAHPRMGVGCRLSRALLTAVTNVLIFFWCLAFLWGLLILLKYRWRKLEEEEQAMYEMVKKIIDVVQDHYVDWEQDMERYPYVGILHVRDSLIPPQSRRRMKRVWDRAVEFLASNESRIQTESHRVAGEDMLVWRWTKPSSFSDSER
notes: Absent from XPO1 immunoprecipitates by western blot; also called LEM2

Target: T1, XPO1 (human, UniProt O14980 1-1071)
T1 construct: Endogenous protein pulled down from iPSN nuclear lysates with mouse anti-XPO1 (Santa Cruz sc-74454) coupled to Protein G beads; also called CRM1; XPO1/CRM1
T1 sequence (O14980 whole entry): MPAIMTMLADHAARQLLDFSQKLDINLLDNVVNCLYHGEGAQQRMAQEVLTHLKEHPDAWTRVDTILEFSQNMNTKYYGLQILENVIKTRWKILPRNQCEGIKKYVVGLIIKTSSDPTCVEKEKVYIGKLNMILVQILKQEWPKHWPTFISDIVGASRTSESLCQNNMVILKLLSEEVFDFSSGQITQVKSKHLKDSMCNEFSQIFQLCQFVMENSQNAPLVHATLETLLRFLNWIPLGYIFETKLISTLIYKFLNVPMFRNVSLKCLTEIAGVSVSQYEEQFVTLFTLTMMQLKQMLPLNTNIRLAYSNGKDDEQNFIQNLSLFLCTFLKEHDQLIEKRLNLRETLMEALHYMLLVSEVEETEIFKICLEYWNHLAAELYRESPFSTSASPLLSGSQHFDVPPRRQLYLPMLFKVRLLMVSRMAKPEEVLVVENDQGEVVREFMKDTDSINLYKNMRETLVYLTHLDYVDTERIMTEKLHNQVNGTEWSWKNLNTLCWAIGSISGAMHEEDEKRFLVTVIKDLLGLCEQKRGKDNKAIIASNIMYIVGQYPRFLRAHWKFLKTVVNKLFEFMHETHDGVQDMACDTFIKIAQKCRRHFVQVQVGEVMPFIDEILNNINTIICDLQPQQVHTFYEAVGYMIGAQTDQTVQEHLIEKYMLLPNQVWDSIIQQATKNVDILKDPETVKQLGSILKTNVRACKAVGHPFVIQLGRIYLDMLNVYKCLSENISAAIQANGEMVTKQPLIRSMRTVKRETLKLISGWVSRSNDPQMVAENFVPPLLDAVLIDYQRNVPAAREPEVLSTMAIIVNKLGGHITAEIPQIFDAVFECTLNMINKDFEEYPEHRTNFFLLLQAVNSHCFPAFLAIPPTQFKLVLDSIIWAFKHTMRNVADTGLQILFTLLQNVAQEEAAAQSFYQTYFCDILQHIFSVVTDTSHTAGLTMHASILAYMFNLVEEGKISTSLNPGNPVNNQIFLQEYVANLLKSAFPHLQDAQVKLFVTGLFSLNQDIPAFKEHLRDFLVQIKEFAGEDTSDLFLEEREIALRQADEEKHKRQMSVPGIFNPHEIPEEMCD
Experiment: co-immunoprecipitation with anti-XPO1 from iPSN nuclear lysates, western blot
Protocol: Nuclei were isolated from iPSNs as described above. The resulting nuclei pellet was lysed in 1 mL IP buffer by vortexing for 30-45 seconds. Nuclei lysates were centrifuged for 10 minutes at 2500 rpm and 4° C. to remove debris. Following centrifugation, the supernatant was transferred to a clean Eppendorf tube. 25 μL of the supernatant was added to μL 2× Laemmli buffer (BioRad) and set aside as protein input and an additional 25 μL supernatant was set aside on ice as RNA input. The remainder of the lysate was split equally between IgG and XPO1 antibody conjugated bead tubes. Lysates were incubated with beads with end over end rotation for 2 hours at 4° C. The unbound supernatant was discarded and immunoprecipitated complexes were washed 3×5 minutes in 200 μL IP buffer with end over end rotation at 4° C. Bead-IP complexes were resuspended in 200 μL IP buffer. 100 μL of each bead-IP complex sample was set aside for RNA analysis. For the remaining 100 μL, the supernatant was discarded and 50 μL 1× Laemmli buffer was added to bead-IP complexes. All RNA samples (including input) were added to 500 μL RLT Buffer (QIAGEN) and RNA isolation, cDNA synthesis, and qRT-PCR were performed as described below. Protein samples were analyzed by western blot as described below. Equal volumes of each sample (10 μL) were loaded in acrylamide gels. […]

Binder	binding result
B1	no binding
B2	no binding
